Assay results from paper PMC2675579, “Structure of N-acetylglucosamine-1-phosphate uridyltransferase (GlmU) from Mycobacterium tuberculosis in a cubic space group” (Acta Crystallographica Section F: Structural Biology and …, 2009).

Target: the molecule itself
Assay: SEC; 26/60 Superdex200 High Load gel-filtration column, 20 mM HEPES pH 7.5, 150 mM NaCl, 1 mM DTT

B1: N-acetylglucosamine-1-phosphate uridyltransferase (GlmU) from Mycobacterium tuberculosis (enzyme)
chain: MTFPGDTAVLVLAAGPGTRMRSDTPKVLHTLAGRSMLSHVLHAIAKLAPQRLIVVLGHDHQRIAPLVGELADTLGRTIDVALQDRPLGTGHAVLCGLSALPDDYAGNVVVTSGDTPLLDADTLADLIATHRAVSAAVTVLTTTLDDPFGYGRILRTQDHEVMAIVEQTDATPSQREIREVNAGVYAFDIAALRSALSRLSSNNAQQELYLTDVIAILRSDGQTVHASHVDDSALVAGVNNRVQLAELASELNRRVVAAHQLAGVTVVDPATTWIDVDVTIGRDTVIHPGTQLLGRTQIGGRCVVGPDTTLTDVAVGDGASVVRTHGSSSSIGDGAAVGPFTYLRPGTALGADGKLGAFVEVKNSTIGTGTKVPHLTYVGDADIGEYSNIGASSVFVNYDGTSKRRTTVGSHVRTGSDTMFVAPVTIGDGAYTGAGTVVREDVPPGALAVSAGPQRNIENWVQRKRPGSPAAQASKRASEMACQQPTQPPDADQTP
notes: GlmU, Mycobacterium tuberculosis, gene Rv1018c (glmU); model built for residues 1-472; also called Rv1018c gene product; M. tuberculosis GlmU
With B1 as the protein, how does the “stoichiometry N” value read?
Its value is 3.
